This passage reports binding result, Kd and IC50 results from patent publication US20210261685A1 (Alector, published 2021).

In test [1] the target is T1, human Axl ECD construct (Full Axl) with linker+His+Avi tag (human, UniProt P30530 26-451).
T1 construct: tested as Expi293 supernatant; also called ECD domain of human Axl
T1 sequence: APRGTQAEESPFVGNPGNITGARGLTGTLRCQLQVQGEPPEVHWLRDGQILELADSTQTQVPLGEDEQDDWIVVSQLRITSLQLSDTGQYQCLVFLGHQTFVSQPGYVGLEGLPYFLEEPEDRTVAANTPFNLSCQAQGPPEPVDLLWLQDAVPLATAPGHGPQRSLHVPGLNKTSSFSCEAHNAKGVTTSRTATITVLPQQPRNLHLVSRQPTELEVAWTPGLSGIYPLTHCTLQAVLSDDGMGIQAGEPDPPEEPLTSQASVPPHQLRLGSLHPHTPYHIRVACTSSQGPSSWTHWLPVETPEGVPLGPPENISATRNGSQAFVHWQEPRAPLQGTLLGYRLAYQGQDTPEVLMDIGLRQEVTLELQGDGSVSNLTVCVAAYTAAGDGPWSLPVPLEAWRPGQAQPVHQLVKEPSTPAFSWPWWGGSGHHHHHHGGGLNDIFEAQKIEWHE
As to the kind of experiment: SPR, Carterra LSA, antibody immobilised, construct supernatant injected. As to the method: Binding of anti-MerTK antibodies of the present disclosure to these domain-swapped chimera or deletion mutants (prepared as described above) was tested by Surface Plasmon Resonance (SPR) using Carterra LSA. Purified anti-MerTK antibodies were immobilized in duplicate on a HC30M chip (Carterra) by amine coupling, following the manufacturer's instructions (described previously). Supernatants containing the constructs were diluted 1:1 with running buffer containing 0.5 mg/mL BSA (HBS-TE, Carterra) and injected over the immobilized antibodies. The surface was regenerated with 10 mM Glycine pH2.0 after each construct injection. Sensorgrams were analyzed using Carterra Epitope software to identify patterns of construct binding. Loss of binding to MerTK constructs with domains deleted or swapped in from Axl and/or gain of binding to Axl constructs with MerTK domains swapped in were evaluated. Data from these studies was used to construct a domain binding map for anti-MerTK antibodies and their binding to various domains of human MerTK.
On the technique in general: Surface plasmon resonance follows binding to a sensor surface in real time, without labels.

Test [2] concerns the target T2, human MerTK extracellular domain (ECD), recombinant (human, UniProt Q12866 21-505).
T2 construct: also called huMerTK; not shown: polyHis tag or TEVS/Thrombin/murine IgG2a Fc tag
T2 sequence: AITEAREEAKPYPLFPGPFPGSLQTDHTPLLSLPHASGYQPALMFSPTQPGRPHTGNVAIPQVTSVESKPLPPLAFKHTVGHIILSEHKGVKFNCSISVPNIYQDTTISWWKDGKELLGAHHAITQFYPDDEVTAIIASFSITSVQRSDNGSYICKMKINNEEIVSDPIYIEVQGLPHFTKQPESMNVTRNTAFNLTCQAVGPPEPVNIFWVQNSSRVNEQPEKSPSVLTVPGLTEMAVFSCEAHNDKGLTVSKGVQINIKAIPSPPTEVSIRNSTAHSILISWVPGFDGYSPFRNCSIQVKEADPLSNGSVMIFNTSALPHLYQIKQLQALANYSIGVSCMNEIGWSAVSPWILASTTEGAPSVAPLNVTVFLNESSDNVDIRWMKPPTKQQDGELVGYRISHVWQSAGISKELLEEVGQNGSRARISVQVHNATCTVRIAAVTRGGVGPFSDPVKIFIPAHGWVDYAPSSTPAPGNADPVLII
As to the kind of experiment: SPR, Carterra LSA, antibody immobilised. As to the method:
(§1) Binding kinetics of human anti-MerTK IgG1 LALAPS antibodies of the present disclosure to human, cyno, and murine MerTK were evaluated using a Carterra LSA instrument (Carterra, Salt Lake City, Utah). Briefly, anti-MerTK antibodies were prepared by diluting to 10 μg/ml in 10 mM Acetate, pH 4.25 (Carterra), at 300 μl/well. A HC200M sensor chip (Carterra) was activated using the single channel flow cell with a 7-minute injection of a 1:1:1 mixture of 100 mM MES pH 5.5, 100 mM sulfo-NHS, 400 mM EDC (all reconstituted in MES pH 5.5; 100 μl of each mixed in vial immediately before running assay). After switching to the multi-channel array flow cell, the antibodies were injected over the activated chip in a 96-spot array for 15 minutes. The remaining unconjugated active groups on the chip were then blocked by injecting 1M Ethanolamine pH 8.5 (Carterra) for 7 minutes using the single channel flow cell.
(§2) After priming with running buffer (HBS-TE, Carterra) with 0.5 mg/ml BSA (Sigma), the immobilized anti-MerTK antibodies were tested for their ability to bind to several forms of recombinant MerTK extracellular domain, including human, cynomolgus, and mouse orthologs as described above. Estimates of affinity were generated by injecting each analyte over the entire antibody array using the single channel flow cell. MerTK analytes were diluted to 33.3, 100, and 300 nM in running buffer, and injected in serial from lowest to highest concentration without regeneration. Two buffer blanks were run between each series (one species per series). Data were processed and analyzed using NextGenKIT high-throughput kinetics analysis software (Carterra).
(§3) The equilibrium dissociation constants (KD) were then calculated from the fitted association and dissociation rate constants (k-on and k-off) for anti-MerTK antibodies of the present disclosure. Binding kinetic analysis was also performed on anti-MerTK antibodies H1 (BioLegend, Clone ID: 590H11G1E3), H2 (R&D systems, Clone ID: 125518), M6 (WO2016/106221), and CDX AB2000-A7 hIgG1 (WO2019/084307).

The target of test [3] is T3, murine MerTK extracellular domain (ECD), recombinant (mouse, UniProt Q60805 19-497).
T3 construct: also called moMerTK; mouse MerTK; not shown: polyHis tag or TEVS/Thrombin/murine IgG2a Fc tag
T3 sequence: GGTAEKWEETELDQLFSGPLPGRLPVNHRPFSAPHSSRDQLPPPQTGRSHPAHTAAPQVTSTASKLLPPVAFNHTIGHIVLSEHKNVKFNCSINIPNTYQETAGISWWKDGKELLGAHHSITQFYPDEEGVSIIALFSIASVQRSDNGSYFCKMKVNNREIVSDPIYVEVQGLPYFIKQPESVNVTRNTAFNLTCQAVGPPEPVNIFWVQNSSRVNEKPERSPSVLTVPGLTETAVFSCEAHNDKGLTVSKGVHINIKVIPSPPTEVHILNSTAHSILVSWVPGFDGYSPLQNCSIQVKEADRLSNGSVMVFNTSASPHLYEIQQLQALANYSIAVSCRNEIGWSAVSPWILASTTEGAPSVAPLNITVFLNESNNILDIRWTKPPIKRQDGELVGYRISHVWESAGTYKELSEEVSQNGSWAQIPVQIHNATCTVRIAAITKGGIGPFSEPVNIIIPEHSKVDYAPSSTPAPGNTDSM
As to the kind of experiment: SPR, Carterra LSA, antibody immobilised. As to the method: as §1, §2, §3

Test [4] addresses T4, cyno MerTK extracellular domain (ECD), recombinant (cynomolgus monkey, UniProt Q12866 21-505 (human entry)).
T4 construct: also called cynomolgus MerTK; not shown: polyHis tag or TEVS/Thrombin/murine IgG2a Fc tag
T4 chain: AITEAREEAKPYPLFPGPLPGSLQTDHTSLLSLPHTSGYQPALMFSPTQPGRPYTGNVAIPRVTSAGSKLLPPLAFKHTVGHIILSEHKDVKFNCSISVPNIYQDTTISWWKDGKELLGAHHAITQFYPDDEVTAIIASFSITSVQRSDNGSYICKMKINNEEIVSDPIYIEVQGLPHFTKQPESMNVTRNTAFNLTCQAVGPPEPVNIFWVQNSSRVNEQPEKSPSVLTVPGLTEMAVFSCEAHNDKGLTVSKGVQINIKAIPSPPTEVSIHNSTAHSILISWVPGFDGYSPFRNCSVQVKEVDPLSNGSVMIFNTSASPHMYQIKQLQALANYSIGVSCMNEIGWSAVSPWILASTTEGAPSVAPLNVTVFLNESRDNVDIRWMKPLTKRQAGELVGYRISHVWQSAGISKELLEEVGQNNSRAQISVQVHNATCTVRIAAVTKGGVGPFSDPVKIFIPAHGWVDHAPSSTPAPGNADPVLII
As to the kind of experiment: SPR, Carterra LSA, antibody immobilised; LB = Low binding. As to the method: as §1
After priming with running buffer (HBS-TE, Carterra) with 0.5 mg/ml BSA (Sigma), the immobilized anti-MerTK antibodies were tested for their ability to bind to several forms of recombinant MerTK extracellular domain, including human, cynomolgus, and mouse orthologs as described above. […] Data were processed and analyzed using NextGenKIT high-throughput kinetics analysis software (Carterra).

Test [5] has as its target T5, Recombinant human MerTK human Fc Chimera protein (R&D systems, Cat #391-MR-100) (human, UniProt Q12866 26-499, limits assumed).
T5 construct: Bought; also called recombinant human MerTK protein; MerTK-Fc
T5 sequence: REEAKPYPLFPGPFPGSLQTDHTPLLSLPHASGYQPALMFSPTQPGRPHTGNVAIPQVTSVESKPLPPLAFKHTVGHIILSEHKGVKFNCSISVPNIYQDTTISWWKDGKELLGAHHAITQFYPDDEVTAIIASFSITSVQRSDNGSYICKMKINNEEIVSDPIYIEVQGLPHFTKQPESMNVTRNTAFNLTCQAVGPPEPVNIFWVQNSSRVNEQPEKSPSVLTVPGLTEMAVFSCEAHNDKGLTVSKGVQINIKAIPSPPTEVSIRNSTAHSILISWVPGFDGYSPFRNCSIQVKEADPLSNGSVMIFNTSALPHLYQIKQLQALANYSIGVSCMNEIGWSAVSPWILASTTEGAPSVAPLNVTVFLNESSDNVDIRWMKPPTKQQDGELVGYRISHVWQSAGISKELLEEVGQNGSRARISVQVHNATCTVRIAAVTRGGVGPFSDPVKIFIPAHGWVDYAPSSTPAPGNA
As to the kind of experiment: competition ELISA, His-ProS on captured MerTK-Fc. As for the experimental part: Rabbit anti-human IgG polyclonal antibody (Jackson ImmunoResearch, Cat #309-005-008) was captured to a high-protein binding plate at 2 μg/ml 4° C. overnight. After washing with 0.05% Tween20 in PBS three times, 5% BSA in PBS was added for 1 hour. Recombinant human MerTK human Fc Chimera protein (R&D systems, Cat #391-MR-100) was added at 2 μg/ml for 1 hour and the plates were then washed. Anti-MerTK antibodies were titrated to final concentration range of between 66.6 nM to 4 pM and then 40 μl of serially diluted antibody and 40 μl of His tag-conjugated recombinant Gas6 protein (R&D systems, Cat #885-GSB-050) at 3 μg/ml or His tag-conjugated recombinant ProS protein (R&D systems, Cat #9489-PS-100) at 20 μg/ml. After a further incubation for 1 hour, plates were washed and incubated for 1 hour with HRP-conjugated anti-6×His tag antibody (Abcam, Cat #ab1187). Plates were then washed and an HRP substrate (TMB) was used to develop the plates. After sufficient color change was observed, the reaction was stopped by adding 50 μl 2N H₂SO₄ and the OD was measured using a spectrophotometer (BioTek).
From these experiments, IC50 values [nM] were determined using OD450 values obtained from the dose-response curves analyzed with Prism software. Table 14 and Table 15 show IC50 values determined for anti-MerTK antibody blocking of Gas6 ligand binding and ProS ligand binding to MerTK. […] Dashes indicate lack of significant blocking; “n.a.” indicates data not available.

B1: MTK-22 (antibody, human IgG1, V domains shown)
VH: QVQLQQPGADLVEPGASVKLSCKASGYTFTSYWMHWVKQRPGQGLEWIGEIDPSDSSSNYNQKFKGKATLTVDKSSSTAYMHLNSLTSEDSAVYYCARRYYYGSLYFDNWGQGTTLTVSS
VL: DVVMTQSHKFMSTSVGDRVSITCKASQDVGTAIAWYQQKPGQSPKLLIYWASTRHTGVPDRFTGSRSGTVFTLTISNVQSEDLADYFCQQYTSYPLTFGSGTKLEIK
As usually defined, the Kd is the constant that tells how readily two partners part at equilibrium. B1: the binding result in test [1] is on record as “no binding”; in test [3], “no binding (tested: 300 nM)”; in test [4], “binds”. In test [2], the Kd stood at 54 nM.

B2: MTK-25 (antibody, human IgG1, V domains shown)
VH: EVKLVESEGGLVQPGSSMKLSCTASGFTFSDYYMAWVRQVPEKGLEWVANINYEGSSTYYLGSLKSRFIISRDNAENILYLQMSSLKSEDTATYYCARYYYGSVDYWGQGTTLTVSS
VL: DIVMTQSQKFMSTSVGDRVSITCKASQNVRTTVAWYQQKPGQSPKTLIYLASNRHTGVPDRFTGSGSGTDFTLTISNVQSEDLADYFCLQLWNYPWTFGGGTKLEIK
B2: the binding result in test [1] is “no binding”.

B3: MTK-23 (antibody, human IgG1, V domains shown)
VH: QVQLQQSGADLVRPGASVKISCKAFGYTFTNHHINWVKQRPGQGLDWIGNVDPYNDYSTYNQKFKGKATLTVDKSSSTAYMELSSLTSEDSAVYYCARRVYDGFYVDWYFDVWGAGTTVTVSS
VL: DIVMTQSHKFMSTPVGDRVSITCKASRDVSTAVAWFHQKPGQSPKLLIYSASYRSTGVPDRFTGSGSGTDFTFTISSVQAEDLAVYYCQQHYSAPLTFGAGTKLELK
The IC50 is the concentration at which inhibition is half-maximal. In the case of B3, the IC50 in test [5] was 25.9 nM.
